Data from patent US20070244108A1.

B1: human hepatic microsomal 11β HSD1 (Homo sapiens) (protein)
chain: MAFMKKYLLPILGLFMAYYYYSANEEFRPEMLQGKKVIVTGASKGIGREMAYHLAKMGAHVVVTARSKETLQKVVSHCLELGAASAHYIAGTMEDMTFAEQFVAQAGKLMGGLDMLILNHITNTSLNLFHDDIHHVRKSMEVNFLSYVVLTVAALPMLKQSNGSIVVVSSLAGKVAYPMVAAYSASKFALDGFFSSIRKEYSVSRVNVSITLCVLGLIDTETAMKAVSGIVHMQAAPKEECALEIIKGGALRQEEVYYDSSLWTTLLIRNPCRKILEFLYSTSYNMDRFINK
B2: Human 11β HSD1 (Homo sapiens) (protein)
chain: B1 chain

Substrate: C[C@]12CCC(=O)C=C1CCC1C2C(=O)C[C@@]2(C)C1CC[C@]2(O)C(=O)CO
Experiment: cells, lysate or membranes named

Row | Protein | Km (other: 10 μg microsomal protein, 30 min at 37° C., Buffer 1, TLC assay) | Km (other: RIA detection, 10 μg/well microsomal protein, 30 min, buffer 3, 37.0 °C)
1 | B1 | 0.66 µM | –
2 | B2 | – | 0.7 µM
